Results: PMC5409509

Key:
[1] = biological target: T1, Mlh1-Mlh3 (Saccharomyces cerevisiae) (UniProt P38920+Q12083); test: filter binding; details: 2 mM Mg2+; Filter binding: 20 mM Tris-HCl pH 7.5, 0.01 mM EDTA, 2 mM MgCl2, 40 ug/mL BSA, 0.1 mM DTT, 15 uM nucleotide DNA, 10 min at 30 C (20 or 150 mM KCl in Fig 4B …)
T1 sequence 1: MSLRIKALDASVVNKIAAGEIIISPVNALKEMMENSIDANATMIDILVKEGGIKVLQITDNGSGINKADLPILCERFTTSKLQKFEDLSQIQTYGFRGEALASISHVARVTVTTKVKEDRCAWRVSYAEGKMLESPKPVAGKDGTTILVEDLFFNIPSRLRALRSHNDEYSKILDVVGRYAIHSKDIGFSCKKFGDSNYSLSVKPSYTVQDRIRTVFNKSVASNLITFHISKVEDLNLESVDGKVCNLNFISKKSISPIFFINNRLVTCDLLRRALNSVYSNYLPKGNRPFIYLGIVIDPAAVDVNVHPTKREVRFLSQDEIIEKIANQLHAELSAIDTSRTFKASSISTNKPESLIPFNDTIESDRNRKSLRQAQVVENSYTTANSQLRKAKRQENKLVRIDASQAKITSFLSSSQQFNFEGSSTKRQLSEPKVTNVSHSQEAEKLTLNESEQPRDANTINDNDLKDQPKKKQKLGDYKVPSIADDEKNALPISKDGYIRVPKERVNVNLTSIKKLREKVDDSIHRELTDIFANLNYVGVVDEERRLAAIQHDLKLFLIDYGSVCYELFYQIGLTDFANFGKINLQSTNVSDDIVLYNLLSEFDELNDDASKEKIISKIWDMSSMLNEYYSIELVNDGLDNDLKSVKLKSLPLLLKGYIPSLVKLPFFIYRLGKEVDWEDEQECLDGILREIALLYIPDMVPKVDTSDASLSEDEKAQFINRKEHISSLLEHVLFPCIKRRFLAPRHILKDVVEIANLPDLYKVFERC
T1 sequence 2: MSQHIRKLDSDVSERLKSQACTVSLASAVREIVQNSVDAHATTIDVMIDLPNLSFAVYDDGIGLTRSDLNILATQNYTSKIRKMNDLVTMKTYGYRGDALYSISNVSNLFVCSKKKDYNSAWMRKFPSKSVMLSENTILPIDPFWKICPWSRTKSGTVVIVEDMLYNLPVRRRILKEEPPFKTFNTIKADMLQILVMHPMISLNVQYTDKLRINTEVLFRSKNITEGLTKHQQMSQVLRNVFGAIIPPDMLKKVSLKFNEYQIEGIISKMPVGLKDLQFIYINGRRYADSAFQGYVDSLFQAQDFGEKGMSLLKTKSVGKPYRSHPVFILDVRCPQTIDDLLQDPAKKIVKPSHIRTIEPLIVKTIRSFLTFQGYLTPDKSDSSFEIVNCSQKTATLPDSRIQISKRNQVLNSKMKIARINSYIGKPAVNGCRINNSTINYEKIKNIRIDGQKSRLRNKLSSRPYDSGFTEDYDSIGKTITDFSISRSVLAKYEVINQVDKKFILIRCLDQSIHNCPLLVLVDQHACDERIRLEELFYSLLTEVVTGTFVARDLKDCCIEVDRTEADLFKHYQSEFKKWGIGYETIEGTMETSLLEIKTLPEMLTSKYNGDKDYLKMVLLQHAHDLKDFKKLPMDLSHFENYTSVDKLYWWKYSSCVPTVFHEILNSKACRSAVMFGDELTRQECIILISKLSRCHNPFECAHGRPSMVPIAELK

[2] = biological target: Yeast wild-type Mlh1-Mlh3 (yeast (S. cerevisiae)) (UniProt P38920)

| amount of nicked product made by Mlh1-Mlh3 on the 7.2 kb +8 loop circular substrate, without and with Msh2-Msh3 (10% without) [2] [%] | amount of nicked product made by Mlh1-Mlh3 on the 7.2 kb homoduplex circular substrate, without and with Msh2-Msh3 (15% without) [2] [%] | Substance | Kd [1] [nM] |
| --- | --- | --- | --- |
|  |  | 2.7 kb linear pUC18 (HindIII) | 100 |
|  |  | 7 kb linear pEAE399 (HindIII) | 65 |
|  |  | 12 kb linear pEAE99 (HindIII) | 40 |
| 21 | 36 | Yeast Msh2-Msh3 (from UniProt P25847 1-964; P25336 1-1018) (complex) |  |
